Test results from the supplement of paper PMC7125110.
± gives the standard error. For some of these results: Fewer inactive variants are shown than the library holds.

B1: glmS ribozyme (parent)
chain: AUAAAAGCGCCAGAACUACAGAAAUGUAGUUGACGAGGAGGAGGUUUAUCGAAUUUUCGGCGGAUGCCUCCAAA

Tests used:
Conditions in all cases: with glucosamine-6-phosphate
glucosamine-6-phosphate [1] = variants of: B1; assay: kcat; higher = faster cleavage; RNA array
Summary of the method: (§1)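 Barcoded ribozyme variants, transcribed in situ by E. coli RNA polymerase on sequenced MiSeq chips, were followed via a hybridised Cy3 probe at 37 °C. Glucosamine-6-phosphate ranged from 40 μM to 10 mM in HEPES/KCl/Mg(OAc)2 buffer. kobs came from decay fits to per-tile medians, and kcat and KM from weighted Michaelis–Menten fits.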

glucosamine-6-phosphate [2] = variants of: B1; assay: KM; higher = weaker cofactor use; RNA array
Summary of the method: as §1

glucosamine-6-phosphate [3] = variants of: B1; assay: self-cleavage kobs at 40 uM GlcN6P; higher = faster cleavage; RNA array
Summary of the method: as §1

glucosamine-6-phosphate [4] = variants of: B1; assay: self-cleavage kobs at 640 uM GlcN6P; higher = faster cleavage; RNA array
Summary of the method: as §1

glucosamine-6-phosphate [5] = variants of: B1; assay: self-cleavage kobs at 2500 uM GlcN6P; higher = faster cleavage; RNA array
Summary of the method: as §1

glucosamine-6-phosphate [6] = variants of: B1; assay: self-cleavage kobs at 10000 uM GlcN6P; higher = faster cleavage; RNA array
Summary of the method: as §1

glucosamine-6-phosphate [7] = variants of: B1; assay: self-cleavage kobs at 160 uM GlcN6P; higher = faster cleavage; RNA array
Summary of the method: as §1

Variant | kcat (glucosamine-6-phosphate [1]) | KM (glucosamine-6-phosphate [2]) | self-cleavage kobs at 40 uM GlcN6P (glucosamine-6-phosphate [3]) | self-cleavage kobs at 640 uM GlcN6P (glucosamine-6-phosphate [4]) | self-cleavage kobs at 2500 uM GlcN6P (glucosamine-6-phosphate [5]) | self-cleavage kobs at 10000 uM GlcN6P (glucosamine-6-phosphate [6]) | self-cleavage kobs at 160 uM GlcN6P (glucosamine-6-phosphate [7])
A14C G26A | 0.00194 ± 0.00022 s⁻¹ | 1030 ± 190 µM | 6.7e-05 ± 1.7e-05 s⁻¹ | 0.000887 ± 0.00023 s⁻¹ | 0.00142 ± 0.00041 s⁻¹ | 0.00166 ± 0.00037 s⁻¹ | –
A14G U49A | 3.99e-05 ± 1e-06 s⁻¹ | 773 ± 130 µM | – | – | – | 3.67e-05 ± 1.2e-05 s⁻¹ | –
A14C A53G | 0.00897 ± 0.0044 s⁻¹ | – | 0.00012 ± 1.8e-05 s⁻¹ | 0.00116 ± 0.00015 s⁻¹ | 0.0024 ± 0.00037 s⁻¹ | 0.00721 ± 0.001 s⁻¹ | 0.000245 ± 3.7e-05 s⁻¹
A14C U55C | 0.00399 ± 0.0011 s⁻¹ | 1800 ± 660 µM | 8.57e-05 ± 1.1e-05 s⁻¹ | 0.00122 ± 0.00015 s⁻¹ | 0.00171 ± 0.00035 s⁻¹ | 0.00439 ± 0.00076 s⁻¹ | 0.000312 ± 7.6e-05 s⁻¹
A14C U55A | 0.00676 ± 0.0017 s⁻¹ | 2080 ± 720 µM | 0.000144 ± 1.6e-05 s⁻¹ | 0.00145 ± 0.00015 s⁻¹ | 0.0031 ± 0.00043 s⁻¹ | 0.00734 ± 0.00098 s⁻¹ | 0.000546 ± 8.1e-05 s⁻¹
A14C C70A | 0.000106 ± 1.1e-05 s⁻¹ | 413 ± 170 µM | – | 5.59e-05 ± 6.8e-06 s⁻¹ | 9.55e-05 ± 8e-06 s⁻¹ | 0.000102 ± 9.4e-06 s⁻¹ | 4.49e-05 ± 9.3e-06 s⁻¹
A14U G66A | 0.00402 ± 0.0012 s⁻¹ | 2120 ± 870 µM | 0.000107 ± 1.8e-05 s⁻¹ | 0.00104 ± 0.00029 s⁻¹ | 0.00172 ± 0.0003 s⁻¹ | 0.00403 ± 0.00059 s⁻¹ | 0.000254 ± 3.9e-05 s⁻¹
A14U A33U A42G | 9.54e-05 ± 3.1e-05 s⁻¹ | – | – | – | 7.08e-05 ± 1.9e-05 s⁻¹ | 7.49e-05 ± 2.6e-05 s⁻¹ | –
A14U C16G | 0.000881 ± 0.00019 s⁻¹ | 1840 ± 670 µM | – | 0.000263 ± 3.3e-05 s⁻¹ | 0.000429 ± 6.7e-05 s⁻¹ | 0.000865 ± 0.00015 s⁻¹ | 5.83e-05 ± 1.7e-05 s⁻¹
A14C U69G | 4.01e-05 ± 6.9e-06 s⁻¹ | – | – | 5.28e-05 ± 2.2e-05 s⁻¹ | 4.06e-05 ± 9.1e-06 s⁻¹ | 3.03e-05 ± 1.2e-05 s⁻¹ | 6.28e-05 ± 2.1e-05 s⁻¹
A14G A42C | 3.47e-05 ± 2.4e-06 s⁻¹ | 1730 ± 410 µM | – | – | 1.97e-05 ± 9.6e-06 s⁻¹ | 2.99e-05 ± 1e-05 s⁻¹ | –
A14C G37A | 0.000437 ± 0.00013 s⁻¹ | – | – | 8.51e-05 ± 1.4e-05 s⁻¹ | 0.000201 ± 3e-05 s⁻¹ | 0.000388 ± 6.8e-05 s⁻¹ | 6.1e-05 ± 1.7e-05 s⁻¹
A14C G37C | < 1e-05 s⁻¹ | – | < 1e-05 s⁻¹ | < 1e-05 s⁻¹ | – | < 1e-05 s⁻¹ | –
A15C A39U | 0.00476 ± 0.00092 s⁻¹ | 2170 ± 610 µM | 0.000106 ± 1.2e-05 s⁻¹ | 0.000744 ± 0.00036 s⁻¹ | 0.00216 ± 0.00041 s⁻¹ | 0.00417 ± 0.00045 s⁻¹ | 0.000264 ± 5e-05 s⁻¹
